The record followed here is patent publication US20260265394A1 (CARTESIAN THERAPEUTICS, published 2026).

In assay [1] the target is T1, soluble BCMA (UniProt Q02223 1-54, limits assumed).
T1 sequence (looked up): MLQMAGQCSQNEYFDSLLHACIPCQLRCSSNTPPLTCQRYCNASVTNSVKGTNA
The experiment in a line: titration, '% of Max Binding' against 'Log Conc (nM)'; apparent affinity of anti-BCMA CAR to soluble BCMA; the text does not describe the assay.

Assay [2] concerns the target T1, soluble BCMA. The experiment in a line: apparent affinity of anti-BCMA CAR to soluble BCMA (FIG. 10A); method not described.

B1: anti-BCMA scFv1 (as CAR), Example 16 (scFv)
scFv: DIVLTQSPPSLAMSLGKRATISCRASESVTILGSHLIHWYQQKPGQPPTLLIQLASNVQTGVPARFSGSGSRTDFTLTIDPVEEDDVAVYYCLQSRTIPRTFGGGTKLEIKGSTSGSGKPGSGEGSTKGQIQLVQSGPELKKPGETVKISCKASGYTFTDYSINWVKRAPGKGLKWMGWINTETREPAYAYDFRGRFAFSLETSASTAYLQINNLKYEDTATYFCALDYSYAMDYWGQGTSVTVSS
As for B1, the “EC50 (read off the curve)” value in assay [1] was approximately 10 nM. For the same molecule, the Kd in assay [2] was found to be 3.2 nM.

As a reminder, the EC50 (read off the curve) is the midpoint of the concentration-response curve.
